What was measured:
[1] = target: Mth1491 homotrimer with a cysteine introduced at position 92, modified with azo maleimide 3 (Methanobacterium thermoautotrophicum); experiment: affinity chromatography on beta-cyclodextrin resin with LC-MS of fractions; Mth1491 modified to about 50% with azo maleimide 3, eluted from a column packed with resin 4 (beta-cyclodextrin on sepharose CL-4B); four peaks for the modification states of the trimer; isolated singly and doubly modified species repurified; trimer disassembles upon LC-MS
[2] = target: Mth1491 homotrimer with a cysteine introduced at position 92, tagged, azo-cleaved, AF-labelled and protected with Ellman's reagent (Methanobacterium thermoautotrophicum); experiment: dynamic light scattering; average particle size before and after protection with Ellman's reagent (5.5 ± 0.3 nm to 7.4 ± 0.9 nm)

Substance	stoichiometry N [1]	stoichiometry N [2]
Mth1491 homotrimer with a cysteine introduced at position 92, modified with azo maleimide 3 (natural protein)	3	–
Mth1491 homotrimer with a cysteine introduced at position 92, tagged, azo-cleaved, AF-labelled and protected with Ellman's reagent (natural protein)	–	3

Reference: PMC5495134
